Laboratory results as given in patent US20220408730A1, “PLANT TREATMENT” (INSTITUTO SUPERIOR DE AGRONOMIA, priority 2019, published 2022).
Entries after “also recorded” stand apart in the source; their conditions may differ.

How the values were obtained:
P. cinnamomi = test: Potted young cork oak inoculated with P. cinnamomi, extension of root lesions; format: in vivo, Quercus suber; conditions: plants sprayed; for root lesion severity: compared with inoculated control
Procedure: In a separate experiment, potted young cork oak plants (Quercus suber) were inoculated with P. cinnamomi and incubated under greenhouse conditions. The plants were sprayed with potassium phosphonate, salicylic acid, Blad and other compounds/extracts under study. The severity of the infection was assessed by quantifying the extension of plant root lesions.

P. chlamydospora = test: Pruning wound protection under real vineyard conditions, wounds brushed with P. chlamydospora spores; format: in vivo, grapevine; conditions: for fungi re-isolated in vitro from the treated wood: culture-dependent methods
Procedure: In an experiment designed as an attempt to protect pruning wounds from esca fungal infection, a couple of surprising observations were made when immediately after pruning under real vineyard conditions, the fresh wounds were brushed with 50 μl of water (control), or of Blad, the commercial fungicide Switch or copper oxychloride solutions (24 replicates for each treatment), and 24 h, 1 month and 2 months afterwards the pruning wounds were brushed with P. chlamydospora spore suspensions. […] On top of that, the diversity of fungi that could be re-isolated in vitro (using culture-dependent methods) from that wood was also lower. […] This remarks the efficient fungicide activity of the two chemicals on P. chlamyobspora, although this fungus seems to be less affected than other natural endophytes of the grapevine. The applicant's analyses of the mycobiome by metabarcoding using Illumina® next-generation sequencing (NGS) techniques detected only minor changes in some taxa composition and in colonization success of some endophytes in grapevine wood after a single copper application. The copper/systemic fungicides didn't change the mycobiome composition in major ways and didn't even directly advantage the pathogen.

external fungi = test: Fungicides in vitro on potato dextrose agar Petri dishes; format: cell-based; conditions: PDA plus individual fungicides
[1] = tested on: Phaeomoniella chlamydospora; test: Relative abundance of P. chlamydospora in wood of potted grapevine cuttings (metabarcoding, greenhouse); format: in vivo, Vitis vinifera cv Cabernet Sauvignon; conditions: for relative abundances (%) of P. chlamydospora: fungicide treatment per column
Text: (§1) Wood samples were carefully collected from grapevine rooted cuttings of Vitis vinifera cv Cabernet Sauvignon grown under greenhouse conditions, which underwent different inoculations and fungicide treatments and their mycobiomes identified by metabarcoding using Illumina® next-generation sequencing (NGS) techniques.
On top, barplots grouped by ‘Inoculation’ type; bottom, barplots grouped by ‘Fungicide’ treatment.
In a subsequent experiment (see also below), potted vines were co-inoculated with P. chlamydospora and a skopobiota (spore suspensions from four fungal species naturally occurring in the grapevine microbiome).
C22 and Aureobasidium pullulans AU86. All fungi were maintained in Petri dishes with vents, on potato dextrose agar medium (Difco™), at 25° C., in the dark.

grapevine wood mycobiome = test: Grapevine wood mycobiome composition and networks after fungicide treatments (metabarcoding); format: in vivo, Vitis vinifera cv Cabernet Sauvignon; conditions: foliar application / spray
Text: as §1, with “techniques. The barplots represented in FIG. 2 show the relative abundances of grapevine wood taxa in plants subjected to different fungicide treatments and inoculation types.” for “techniques.”
FIG. 4 illustrates the effect of fungicide applications on the grapevine wood relative taxa abundance.
In FIG. 4, the differential heat tree matrix depicts the changes in taxa abundance between different fungicide treatments. The size of the individual nodes in the grey cladogram depicts the number of taxa identified at that taxonomic level. The smaller cladograms show pairwise comparisons between each treatment, with the colour illustrating the log2 fold change: a red node indicates a lower abundance of the taxon in the tissue group stated on the abscissa, than in the tissue group stated on the ordinate. A blue node indicates the opposite.
The networks presented in FIG. 5 show how Blad creates a different link among taxa, when compared with control and other fungicides.

[2] = Early growth at bud break after application onto pruning wound; format: in vivo, grapevine; conditions: 50 μl onto the pruning wound, one treatment per plant
Procedure: The photos were taken at the same plant a couple of months later, at bud break. Compare with the natural development state of the vineyard in the background. Twenty-four replicates were prepared for each treatment.

[3] = Growth of nine-week-old carrots in soil with skopobiota-loaded bentochar, with or without Blad spray; format: in vivo, carrot cv Nantes
Procedure: (§2) Twelve carrot seeds cv Nantes were sown in soil containing the different combinations of SLB described above, as well as in positive and negative controls, for a total of 12 treatments (see below). Four weeks after sowing, six mycelium plugs of Trichoderma gamsii were added to each treatment tests, with the exception of the ‘negative control’.
Nine weeks after sowing, carrots were examined for three parameters: (1) above-ground growth, (2) number of fully unfolded leaves, and (3) presence of necrotic lesions or browning in roots.
(§3) Similarly to what described in section ‘Effects on the growth of nine-week-old carrots’, the same skopobiota-loaded bentochar treatments were tested also in combination with a weekly spray of Blad on carrot leaves. The tested Blad concentration was 2 mL Blad per L of water.
The same parameters described in ‘Effects on the growth of nine-week-old carrots’ were assessed.

Trichoderma gamsii = test: Root browning and necrotic lesions score in carrot roots; format: in vivo, carrot cv Nantes
Procedure: as §2
A combination of factors, in which the presence of Trichoderma gamsii was determinant, induced the presence of root browning and necrotic lesion, as shown in FIG. 32.
Carrot roots of each biological replicate, grown under different treatments, were examined to assess differences in the development of root browning and necrotic lesions.
as §3

[4] = With Blad, weekly spray on leaves, 2 mL Blad per L of water

For `O=C(O)c1ccccc1O` [salicylic acid, reference compound], the root lesion severity (P. cinnamomi) was “lower than the inoculated control”.

For “potassium phosphonate [reference compound]”, the root lesion severity (P. cinnamomi) was “lower than the inoculated control”.

For `[Cl-].[Cu+2].[Cu+2].[OH-].[OH-].[OH-]` [copper, copper oxychloride], the “fungi re-isolated in vitro from the treated wood” value (P. chlamydospora) was “nothing but P. chlamydospora could be re-isolated”, the “brown streaking of artificially infected shoots” value (P. chlamydospora; fresh pruning wounds brushed with 50 μl, then P. chlamydospora spores) was “darker brown streaking” and the “contamination of PDA Petri dishes containing the fungicide” value (external fungi) was “to a minor extent”.

B1: Blad: 173-residue polypeptide (SEQ ID NO: 4), residues 109-281 of Lupinus β-conglutin precursor; main subunit of the 210 kDa oligomer BCO (protein)
chain: ARGARGGLNARGASNPRTYRHISPHESERSERGLNARGPHEGLNTHRLETYRLYSASNARGASNGLYLYSILEARGVALLEGLARGPHEASPGLNARGTHRASNARGLEGLASNLEGLNASNTYRARGILEVALGLPHEGLNSERLYSPRASNTHRLEILELEPRLYSHISSERASPALAASPTYRVALLEVALVALLEASNGLYARGALATHRILETHRILEVALASNPRASPARGARGGLNALATYRASNLEGLTYRGLYASPALALEARGILEPRALAGLYSERTHRSERTYRILELEASNPRASPASPASNGLNLYSLEARGVALVALLYSLEALAILEPRILEASNASNPRGLYTYRPHETYRASPPHETYRPRSERSERTHRLYSASPGLNGLNSERTYRPHESERGLYPHESERARGASNTHRLEGLALATHRPHEASNTHRARGTYRGLGLILEGLNARGILEILELEGLYASNGLASP
In the case of B1, the “relative abundances (%) of P. chlamydospora” value ([1]; NO-INOCULATION, potted rooted grapevine cuttings, greenhouse) is reported as 3.78%, the “relative abundances (%) of P. chlamydospora” value ([1]; inoculated with P. chlamydospora + skopobiota at separate locations in the trunk) is reported as 1.34% and the “relative abundances (%) of P. chlamydospora” value ([1]; inoculated with P. chlamydospora alone) is reported as 6.31%. For the same molecule, the “relative abundance of P. chlamydospora” value ([1]; potted vines co-inoculated with P. chlamydospora and a skopobiota (four fungal species)) was 1%, the “relative abundance of the inoculated pathogen” value ([1]; potted vines inoculated with P. chlamydospora and sprayed) was 6% and the “changes in the grapevine wood mycobiome” value (grapevine wood mycobiome) was “created a different network of interactions in the wood mycobiome; also recorded: induced marked changes in the grapevine wood mycobiome”. The “fungi re-isolated in vitro from the treated wood” value (P. chlamydospora) was “many other endophytes”, the “early growth several months after pruning” value [2] was “boost observed in the early growth” and the “root lesion severity versus non-inoculated control” value (P. cinnamomi) was “did not differ significantly from the non-inoculated control”. The root lesion severity (P. cinnamomi) was “only treatment producing excellent results on the infection levels; also recorded: lower than the inoculated control”, the root lesion severity (P. cinnamomi; listed as BLAD) was “lowest lesion severity” and the “Above-ground growth (% of control) Mean ± SD” value [3, 4] was 98% ± % of control. The “Number of leaves (% of control) Mean ± SD” value [3, 4] was 108% ± % of control, the “number of leaves of carrots” value ([3]; in words, compared with treatments without Blad) was “increases the overall number of leaves” and the “above-ground growth of carrots” value ([3]; in words, weekly spray with Blad) was “positively affected”. For the same molecule, the “Total score of root symptoms” value (Trichoderma gamsii; With Blad, weekly spray, 2 mL Blad per L of water) was 2 and the “root symptomatology compared with the positive control” value (Trichoderma gamsii; in words) was “strongly reduced the development of root symptoms”.
